Reference: patent US20210032299A1 (Eli Lilly, published 2021)
Starred links: 1 amine or outer side, 2 acyl side, 3 side chain; linkers in the order of their positions; H or OH if unused. Non-standard residues stand in square brackets, D forms with d. Groups on a side chain read outwards from the residue. No end group written: not given here. *: point of attachment. C20 diacid = O=C(O)CCCCCCCCCCCCCCCCCCC(=O)*; αMePhe(2-F) = C[C@](N)(Cc1ccccc1F)C(=O)O; γGlu = O=C(O)[C@H](CCC(=O)[*:2])N[*:1]; 4Pal = N[C@@H](Cc1ccncc1)C(=O)O; αMeL = CC(C)C[C@](C)(N)C(=O)O; AEEA = NCCOCCOCC(=O)O; Aib = CC(C)(N)C(=O)O

B1: Example 51 (peptide)
peptide: Y[Aib]EGT[αMePhe(2-F)]ISDYSI[αMeL]LDKK([AEEA-AEEA-γGlu-C20 diacid])HQ[Aib]DFVE[4Pal]LLAGGPSSGAPPPS-NH2
modifications: N-terminus assumed
SMILES: CC[C@H](C)[C@H](NC(=O)[C@H](CO)NC(=O)[C@H](Cc1ccc(O)cc1)NC(=O)[C@H](CC(=O)O)NC(=O)[C@H](CO)NC(=O)[C@@H](NC(=O)[C@](C)(Cc1ccccc1F)NC(=O)[C@@H](NC(=O)CNC(=O)[C@H](CCC(=O)O)NC(=O)C(C)(C)NC(=O)[C@@H](N)Cc1ccc(O)cc1)[C@@H](C)O)[C@@H](C)CC)C(=O)N[C@@](C)(CC(C)C)C(=O)N[C@@H](CC(C)C)C(=O)N[C@@H](CC(=O)O)C(=O)N[C@@H](CCCCN)C(=O)N[C@@H](CCCCNC(=O)COCCOCCNC(=O)COCCOCCNC(=O)CC[C@H](NC(=O)CCCCCCCCCCCCCCCCCCC(=O)O)C(=O)O)C(=O)N[C@@H](Cc1c[nH]cn1)C(=O)N[C@@H](CCC(N)=O)C(=O)NC(C)(C)C(=O)N[C@@H](CC(=O)O)C(=O)N[C@@H](Cc1ccccc1)C(=O)N[C@H](C(=O)N[C@@H](CCC(=O)O)C(=O)N[C@@H](Cc1ccncc1)C(=O)N[C@@H](CC(C)C)C(=O)N[C@@H](CC(C)C)C(=O)N[C@@H](C)C(=O)NCC(=O)NCC(=O)N1CCC[C@H]1C(=O)N[C@@H](CO)C(=O)N[C@@H](CO)C(=O)NCC(=O)N[C@@H](C)C(=O)N1CCC[C@H]1C(=O)N1CCC[C@H]1C(=O)N1CCC[C@H]1C(=O)N[C@@H](CO)C(N)=O)C(C)C
B2: Example 52 (peptide)
peptide: Y[Aib]EGTFISDYSI[αMeL]LDKK([AEEA-AEEA-γGlu-C20 diacid])HQ[Aib]EFVE[4Pal]LLAGGPSSGAPPPS-NH2
modifications: N-terminus assumed
SMILES: CC[C@H](C)[C@H](NC(=O)[C@H](Cc1ccccc1)NC(=O)[C@@H](NC(=O)CNC(=O)[C@H](CCC(=O)O)NC(=O)C(C)(C)NC(=O)[C@@H](N)Cc1ccc(O)cc1)[C@@H](C)O)C(=O)N[C@@H](CO)C(=O)N[C@@H](CC(=O)O)C(=O)N[C@@H](Cc1ccc(O)cc1)C(=O)N[C@@H](CO)C(=O)N[C@H](C(=O)N[C@@](C)(CC(C)C)C(=O)N[C@@H](CC(C)C)C(=O)N[C@@H](CC(=O)O)C(=O)N[C@@H](CCCCN)C(=O)N[C@@H](CCCCNC(=O)COCCOCCNC(=O)COCCOCCNC(=O)CC[C@H](NC(=O)CCCCCCCCCCCCCCCCCCC(=O)O)C(=O)O)C(=O)N[C@@H](Cc1c[nH]cn1)C(=O)N[C@@H](CCC(N)=O)C(=O)NC(C)(C)C(=O)N[C@@H](CCC(=O)O)C(=O)N[C@@H](Cc1ccccc1)C(=O)N[C@H](C(=O)N[C@@H](CCC(=O)O)C(=O)N[C@@H](Cc1ccncc1)C(=O)N[C@@H](CC(C)C)C(=O)N[C@@H](CC(C)C)C(=O)N[C@@H](C)C(=O)NCC(=O)NCC(=O)N1CCC[C@H]1C(=O)N[C@@H](CO)C(=O)N[C@@H](CO)C(=O)NCC(=O)N[C@@H](C)C(=O)N1CCC[C@H]1C(=O)N1CCC[C@H]1C(=O)N1CCC[C@H]1C(=O)N[C@@H](CO)C(N)=O)C(C)C)[C@@H](C)CC

Columns and labels:
Experiment in all cases: cell-based or functional assay
[1] = molecular target: T1, human glucose-dependent insulinotropic peptide receptor (human, UniProt P48546 22-466)
T1 sequence (looked up): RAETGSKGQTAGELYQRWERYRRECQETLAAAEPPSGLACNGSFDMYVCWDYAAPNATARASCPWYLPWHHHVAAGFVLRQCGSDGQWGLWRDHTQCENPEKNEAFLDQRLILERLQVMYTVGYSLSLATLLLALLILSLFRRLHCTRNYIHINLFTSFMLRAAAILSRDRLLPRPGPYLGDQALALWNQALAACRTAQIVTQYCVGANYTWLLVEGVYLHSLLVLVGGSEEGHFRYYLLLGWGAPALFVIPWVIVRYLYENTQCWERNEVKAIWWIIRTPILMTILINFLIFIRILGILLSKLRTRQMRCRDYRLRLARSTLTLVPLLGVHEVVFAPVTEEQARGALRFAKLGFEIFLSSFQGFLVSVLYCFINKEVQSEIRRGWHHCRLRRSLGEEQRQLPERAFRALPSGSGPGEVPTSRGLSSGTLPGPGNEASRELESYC

[2] = molecular target: human glucagon receptor (human, UniProt P47871 26-477)
[3] = molecular target: human GLP-1 receptor (human, UniProt P43220 24-463)

Chain of human glucagon receptor (P47871 26-477): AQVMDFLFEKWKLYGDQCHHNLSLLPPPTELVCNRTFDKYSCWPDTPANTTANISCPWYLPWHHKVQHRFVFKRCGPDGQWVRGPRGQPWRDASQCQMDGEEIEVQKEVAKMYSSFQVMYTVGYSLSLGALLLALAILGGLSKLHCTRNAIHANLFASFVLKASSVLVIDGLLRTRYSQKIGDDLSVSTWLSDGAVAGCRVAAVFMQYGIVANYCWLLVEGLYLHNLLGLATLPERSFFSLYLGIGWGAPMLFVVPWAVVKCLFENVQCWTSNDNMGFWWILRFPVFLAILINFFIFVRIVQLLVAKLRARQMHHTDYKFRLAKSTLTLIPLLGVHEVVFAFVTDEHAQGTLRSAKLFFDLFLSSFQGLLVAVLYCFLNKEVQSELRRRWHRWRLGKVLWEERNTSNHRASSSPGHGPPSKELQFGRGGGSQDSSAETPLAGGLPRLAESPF

| Binder | hGIPR cAMP Rel EC50 [1] [nM] | hGcgR cAMP Rel EC50 [2] [nM] | hGLP1R cAMP Rel EC50 [3] [nM] |
| --- | --- | --- | --- |
| B1 | 0.0166 | 308 | 24.7 |
| B2 | 0.0194 | 337 | > 5000 |
